Target: Sulfolobus acidocaldarius soluble FlaF (sFlaF) (Sulfolobus acidocaldarius)
Assay: SEC

stoichiometry N: 2
Substance: Sulfolobus acidocaldarius soluble FlaF (sFlaF) (domain or fragment)

From PMC6952060
